The labels stand for the following.
B1: OR4K15 (parent)
chain: GUUAACGGUCAUAGGCCAUGGAAACUAGGAGCACCAUUUCGCUGCCAGUGAAGAAAUGAACAAAGAAAAUCUGGGCCAGGCAGGCAUCAAAAGAAAUAGUCUUGCGCUCAACCAGAAAGUCUGUAAUCAUUUUAAGGGUA

The variants in this data set derive from B1. In words: self-cleavage, relative activity (ratio to wild type); higher = more cleavage; in vitro, sequencing; the parent is a self-cleaving ribozyme.
In the case of GUUAACGGUCAUAGGCCAUGGAAACUAGGAGCACCAUUUCGCUGCCAGUGAAGAAAUGAACAAAGAAAAUCUGGGCCAGGCAGGCAUCAAAAGAAAUAGUCUCGCGCUCAACCAGUAAGUCUGUAAUCAUUUUAAGGGUA [U103C A116U], the self-cleavage amounted to 0.23.

Consider GUUAACGGUCAUAGGCCAUGGAAACUAGGAGCACCAUUUCGCUGCCAGUGAAGAAAUGAACAAAGAAAAUCUGGGCCAGGCAGGCAUCAAAAGAAAUAGUCUCGCGCUCAACCAGGAAGUCUGUAAUCAUUUUAAGGGUA [U103C A116G], for which the self-cleavage worked out at 0.5.

Regarding GUUAACGGUCAUAGGCCAUGGAAACUAGGAGCACCAUUUCGCUGCCAGUGAAGAAAUGAACAAAGAAAAUCUGGGCCAGGCAGGCAUCAAAAGAAAUAGUCUAGCGCUCAACCAGAAGGUCUGUAAUCAUUUUAAGGGUA [U103A A118G], the self-cleavage was found to be 0.41.

In the case of GUUAACGGUCAUAGGCCAUGGAAACUAGGAGCACCAUUUCGCUGCCAGUGAAGAAAUGAACAAAGAAAAUCUGGGCCAGGCAGGCAUCAAAAGAAAUAGUCUAGCGCUCAACCAGAAAGUCUGUAAUCAUCUUAAGGGUA [U103A U131C], the self-cleavage was determined as 0.45.

Consider GUUAACGGUCAUAGGCCAUGGAAACUAGGAGCACCAUUUCGCUGCCAGUGAAGAAAUGAACAAAGAAAAUCUGGGCCAGGCAGGCAUCAAAAGAAAUAGUCUAGCGCUCAACCAGAAAGCCUGUAAUCAUUUUAAGGGUA [U103A U120C], for which the self-cleavage turned out to be 0.34.

For GUUAACGGUCAUAGGCCAUGGAAACUAGGAGCACCAUUUCGCUGCCAGUGAAGAAAUGAACAAAGAAAAUCUGGGCCAGGCAGGCAUCAAAAGAAAUAGUCUCGCGCUCAACCUGAAAGUCUGUAAUCAUUUUAAGGGUA [U103C A114U], the self-cleavage stood at 0.04.

As for GUUAACGGUCAUAGGCCAUGGAAACUAGGAGCACCAUUUCGCUGCCAGUGAAGAAAUGAACAAAGAAAAUCUGGGCCAGGCAGGCAUCAAAAGAAAUAGUCGUGCCCUCAACCAGAAAGUCUGUAAUCAUUUUAAGGGUA [U102G G106C], the self-cleavage was 0.01.

Take GUUAACGGUCAUAGGCCAUGGAAACUAGGAGCACCAUUUCGCUGCCAGUGAAGAAAUGAACAAAGAAAAUCUGGGCCAGGCAGGCAUCAAAAGAAAUAGUCCUGCGCUCAACCAGAAAGUCUGAAAUCAUUUUAAGGGUA [U102C U124A]: the self-cleavage amounted to 0.97.

For the variant GUUAACGGUCAUAGGCCAUGGAAACUAGGAGCACCAUUUCGCUGCCAGUGAAGAAAUGAACAAAGAAAAUCUGGGCCAGGCAGGCAUCAAAAGAAAUAGUCGUGCGCUCAACCAGGAAGUCUGUAAUCAUUUUAAGGGUA [U102G A116G], the self-cleavage was 0.62.

In the case of GUUAACGGUCAUAGGCCAUGGAAACUAGGAGCACCAUUUCGCUGCCAGUGAAGAAAUGAACAAAGAAAAUCUGGGCCAGGCAGGCAUCAAAAGAAAUAGUCCUGCGCUCAACCAGAAAGUCUGUAAUUAUUUUAAGGGUA [U102C C128U], the self-cleavage was found to be 1.62.

For GUUAACGGUCAUAGGCCAUGGAAACUAGGAGCACCAUUUCGCUGCCAGUGAAGAAAUGAACAAAGAAAAUCUGGGCCAGGCAGGCAUCAAAAGAAAUAGUCCUGCGCUCAACCAGAAAGUCUGUAAUAAUUUUAAGGGUA [U102C C128A], the self-cleavage came to 2.11.

Take GUUAACGGUCAUAGGCCAUGGAAACUAGGAGCACCAUUUCGCUGCCAGUGAAGAAAUGAACAAAGAAAAUCUGGGCCAGGCAGGCAUCAAAAGAAAUAGUCCUGCGCUCAACCAGAAAGUCUGUAAUCAUUUUAAGGGAA [U102C U139A]: the self-cleavage was 2.11.

Consider GUUAACGGUCAUAGGCCAUGGAAACUAGGAGCACCAUUUCGCUGCCAGUGAAGAAAUGAACAAAGAAAAUCUGGGCCAGGCAGGCAUCAAAAGAAAUAGUCCUGCGCUCAACCAGAAAGUCUGUAAUCUUUUUAAGGGUA [U102C A129U], for which the self-cleavage is 1.23.

Consider GUUAACGGUCAUAGGCCAUGGAAACUAGGAGCACCAUUUCGCUGCCAGUGAAGAAAUGAACAAAGAAAAUCUGGGCCAGGCAGGCAUCAAAAGAAAUAGUCGUGCGCUCAACCAGAAAGUCUGUAAUCAUUUAAAGGGUA [U102G U133A], for which the self-cleavage was determined as 1.45.

In the case of GUUAACGGUCAUAGGCCAUGGAAACUAGGAGCACCAUUUCGCUGCCAGUGAAGAAAUGAACAAAGAAAAUCUGGGCCAGGCAGGCAUCAAAAGAAAUAGUCUCGCGCUCUACCAGAAAGUCUGUAAUCAUUUUAAGGGUA [U103C A110U], the self-cleavage amounted to 0.79.

As for GUUAACGGUCAUAGGCCAUGGAAACUAGGAGCACCAUUUCGCUGCCAGUGAAGAAAUGAACAAAGAAAAUCUGGGCCAGGCAGGCAUCAAAAGAAAUAGUCUCGCGCUCGACCAGAAAGUCUGUAAUCAUUUUAAGGGUA [U103C A110G], the self-cleavage was 0.15.

In the case of GUUAACGGUCAUAGGCCAUGGAAACUAGGAGCACCAUUUCGCUGCCAGUGAAGAAAUGAACAAAGAAAAUCUGGGCCAGGCAGGCAUCAAAAGAAAUAGUCCUGCGCUCAACCAGAAAGUCCGUAAUCAUUUUAAGGGUA [U102C U122C], the self-cleavage was 1.24.

On to GUUAACGGUCAUAGGCCAUGGAAACUAGGAGCACCAUUUCGCUGCCAGUGAAGAAAUGAACAAAGAAAAUCUGGGCCAGGCAGGCAUCAAAAGAAAUAGUCCUGCGCUCAACCAGAAAGUCAGUAAUCAUUUUAAGGGUA [U102C U122A], for which the self-cleavage came out at 1.51.

Regarding GUUAACGGUCAUAGGCCAUGGAAACUAGGAGCACCAUUUCGCUGCCAGUGAAGAAAUGAACAAAGAAAAUCUGGGCCAGGCAGGCAUCAAAAGAAAUAGUCCUGCGCUCAACCAGAAAGUCUGUAAUCAUUAUAAGGGUA [U102C U132A], the self-cleavage came out at 2.37.

Consider GUUAACGGUCAUAGGCCAUGGAAACUAGGAGCACCAUUUCGCUGCCAGUGAAGAAAUGAACAAAGAAAAUCUGGGCCAGGCAGGCAUCAAAAGAAAUAGUCCCGCGCUCAACCAGAAAGUCUGUAAUCAUUUUAAGGGUA [U102C U103C], for which the self-cleavage worked out at 0.21.

With GUUAACGGUCAUAGGCCAUGGAAACUAGGAGCACCAUUUCGCUGCCAGUGAAGAAAUGAACAAAGAAAAUCUGGGCCAGGCAGGCAUCAAAAGAAAUAGUCUAGCGCUCAACCAGAAAGUCUGUAAUCAUUUUAAGGAUA [U103A G138A], the self-cleavage was found to be 0.68.

Turning to GUUAACGGUCAUAGGCCAUGGAAACUAGGAGCACCAUUUCGCUGCCAGUGAAGAAAUGAACAAAGAAAAUCUGGGCCAGGCAGGCAUCAAAAGAAAUAGUCCUGCGCUCAACCAGAAAGUCUGUACUCAUUUUAAGGGUA [U102C A126C], the self-cleavage amounted to 1.47.

As for GUUAACGGUCAUAGGCCAUGGAAACUAGGAGCACCAUUUCGCUGCCAGUGAAGAAAUGAACAAAGAAAAUCUGGGCCAGGCAGGCAUCAAAAGAAAUAGUCCUGUGCUCAACCAGAAAGUCUGUAAUCAUUUUAAGGGUA [U102C C105U], the self-cleavage stood at 1.01.

For GUUAACGGUCAUAGGCCAUGGAAACUAGGAGCACCAUUUCGCUGCCAGUGAAGAAAUGAACAAAGAAAAUCUGGGCCAGGCAGGCAUCAAAAGAAAUAGUCCUGCGCUCAACCAGAAAGUCUGUAAUCAUUUUAAGGGUG [U102C A140G], the self-cleavage is 2.39.

Regarding GUUAACGGUCAUAGGCCAUGGAAACUAGGAGCACCAUUUCGCUGCCAGUGAAGAAAUGAACAAAGAAAAUCUGGGCCAGGCAGGCAUCAAAAGAAAUAGUCUCGCGCUCAUCCAGAAAGUCUGUAAUCAUUUUAAGGGUA [U103C A111U], the self-cleavage was determined as 0.1.

Regarding GUUAACGGUCAUAGGCCAUGGAAACUAGGAGCACCAUUUCGCUGCCAGUGAAGAAAUGAACAAAGAAAAUCUGGGCCAGGCAGGCAUCAAAAGAAAUAGUCUAGCGCUCUACCAGAAAGUCUGUAAUCAUUUUAAGGGUA [U103A A110U], the self-cleavage is 0.62.

With GUUAACGGUCAUAGGCCAUGGAAACUAGGAGCACCAUUUCGCUGCCAGUGAAGAAAUGAACAAAGAAAAUCUGGGCCAGGCAGGCAUCAAAAGAAAUAGUCUAGCGCUCGACCAGAAAGUCUGUAAUCAUUUUAAGGGUA [U103A A110G], the self-cleavage is 0.2.

In the case of GUUAACGGUCAUAGGCCAUGGAAACUAGGAGCACCAUUUCGCUGCCAGUGAAGAAAUGAACAAAGAAAAUCUGGGCCAGGCAGGCAUCAAAAGAAAUAGUCGUGCGCUCAACCAGAGAGUCUGUAAUCAUUUUAAGGGUA [U102G A117G], the self-cleavage was 0.37.

Regarding GUUAACGGUCAUAGGCCAUGGAAACUAGGAGCACCAUUUCGCUGCCAGUGAAGAAAUGAACAAAGAAAAUCUGGGCCAGGCAGGCAUCAAAAGAAAUAGUCCUGCGCUAAACCAGAAAGUCUGUAAUCAUUUUAAGGGUA [U102C C109A], the self-cleavage was found to be 0.3.

For GUUAACGGUCAUAGGCCAUGGAAACUAGGAGCACCAUUUCGCUGCCAGUGAAGAAAUGAACAAAGAAAAUCUGGGCCAGGCAGGCAUCAAAAGAAAUAGUCCUGCGCUCAACCAGAAAGUCUGUAAUCAUUUUAUGGGUA [U102C A135U], the self-cleavage is 2.46.

Regarding GUUAACGGUCAUAGGCCAUGGAAACUAGGAGCACCAUUUCGCUGCCAGUGAAGAAAUGAACAAAGAAAAUCUGGGCCAGGCAGGCAUCAAAAGAAAUAGUCCUGCGCUCAACCAGAAAGUCUGUAAUCAUUUUACGGGUA [U102C A135C], the self-cleavage is 1.02.

Take GUUAACGGUCAUAGGCCAUGGAAACUAGGAGCACCAUUUCGCUGCCAGUGAAGAAAUGAACAAAGAAAAUCUGGGCCAGGCAGGCAUCAAAAGAAAUAGUCCUGCGCUCAACCAGAAAGUCUGUAAUCAUUUUAAGGAUA [U102C G138A]: the self-cleavage was 1.82.

Turning to GUUAACGGUCAUAGGCCAUGGAAACUAGGAGCACCAUUUCGCUGCCAGUGAAGAAAUGAACAAAGAAAAUCUGGGCCAGGCAGGCAUCAAAAGAAAUAGUCUAGCGCUCAACCAGUAAGUCUGUAAUCAUUUUAAGGGUA [U103A A116U], the self-cleavage was 0.2.

In the case of GUUAACGGUCAUAGGCCAUGGAAACUAGGAGCACCAUUUCGCUGCCAGUGAAGAAAUGAACAAAGAAAAUCUGGGCCAGGCAGGCAUCAAAAGAAAUAGUCCUGCGCUCAACCAGAAAGUCUGUAAUCACUUUAAGGGUA [U102C U130C], the self-cleavage turned out to be 1.64.

For the variant GUUAACGGUCAUAGGCCAUGGAAACUAGGAGCACCAUUUCGCUGCCAGUGAAGAAAUGAACAAAGAAAAUCUGGGCCAGGCAGGCAUCAAAAGAAAUAGUCUAGCGCUCAACCUGAAAGUCUGUAAUCAUUUUAAGGGUA [U103A A114U], the self-cleavage turned out to be 0.05.

For the variant GUUAACGGUCAUAGGCCAUGGAAACUAGGAGCACCAUUUCGCUGCCAGUGAAGAAAUGAACAAAGAAAAUCUGGGCCAGGCAGGCAUCAAAAGAAAUAGUCCUGCGGUCAACCAGAAAGUCUGUAAUCAUUUUAAGGGUA [U102C C107G], the self-cleavage stood at 0.01.

In the case of GUUAACGGUCAUAGGCCAUGGAAACUAGGAGCACCAUUUCGCUGCCAGUGAAGAAAUGAACAAAGAAAAUCUGGGCCAGGCAGGCAUCAAAAGAAAUAGUCCUGCGCUCAACUAGAAAGUCUGUAAUCAUUUUAAGGGUA [U102C C113U], the self-cleavage was 0.33.

Take GUUAACGGUCAUAGGCCAUGGAAACUAGGAGCACCAUUUCGCUGCCAGUGAAGAAAUGAACAAAGAAAAUCUGGGCCAGGCAGGCAUCAAAAGAAAUAGUCCUGCGCUCAACAAGAAAGUCUGUAAUCAUUUUAAGGGUA [U102C C113A]: the self-cleavage worked out at 0.28.

For GUUAACGGUCAUAGGCCAUGGAAACUAGGAGCACCAUUUCGCUGCCAGUGAAGAAAUGAACAAAGAAAAUCUGGGCCAGGCAGGCAUCAAAAGAAAUAGUCCUGCGCUCAACCAGAAAGUCUGUAACCAUUUUAAGGGUA [U102C U127C], the self-cleavage was determined as 1.56.

As for GUUAACGGUCAUAGGCCAUGGAAACUAGGAGCACCAUUUCGCUGCCAGUGAAGAAAUGAACAAAGAAAAUCUGGGCCAGGCAGGCAUCAAAAGAAAUAGUCGUGCGCUCAACCAGAAAGACUGUAAUCAUUUUAAGGGUA [U102G U120A], the self-cleavage stood at 0.77.

Turning to GUUAACGGUCAUAGGCCAUGGAAACUAGGAGCACCAUUUCGCUGCCAGUGAAGAAAUGAACAAAGAAAAUCUGGGCCAGGCAGGCAUCAAAAGAAAUAGUCCUGCACUCAACCAGAAAGUCUGUAAUCAUUUUAAGGGUA [U102C G106A], the self-cleavage is 0.02.
